Laboratory results from US20250277030A1 (Zymeworks, published 2025).

T1: human sodium-dependent phosphate transporter 2B (NaPi2b) (human, UniProt O95436 1-690)
T1 construct: UniProt ID is given as 095436 [sic]; also called hNaPi2b; Hu NaPi2b
T1 sequence: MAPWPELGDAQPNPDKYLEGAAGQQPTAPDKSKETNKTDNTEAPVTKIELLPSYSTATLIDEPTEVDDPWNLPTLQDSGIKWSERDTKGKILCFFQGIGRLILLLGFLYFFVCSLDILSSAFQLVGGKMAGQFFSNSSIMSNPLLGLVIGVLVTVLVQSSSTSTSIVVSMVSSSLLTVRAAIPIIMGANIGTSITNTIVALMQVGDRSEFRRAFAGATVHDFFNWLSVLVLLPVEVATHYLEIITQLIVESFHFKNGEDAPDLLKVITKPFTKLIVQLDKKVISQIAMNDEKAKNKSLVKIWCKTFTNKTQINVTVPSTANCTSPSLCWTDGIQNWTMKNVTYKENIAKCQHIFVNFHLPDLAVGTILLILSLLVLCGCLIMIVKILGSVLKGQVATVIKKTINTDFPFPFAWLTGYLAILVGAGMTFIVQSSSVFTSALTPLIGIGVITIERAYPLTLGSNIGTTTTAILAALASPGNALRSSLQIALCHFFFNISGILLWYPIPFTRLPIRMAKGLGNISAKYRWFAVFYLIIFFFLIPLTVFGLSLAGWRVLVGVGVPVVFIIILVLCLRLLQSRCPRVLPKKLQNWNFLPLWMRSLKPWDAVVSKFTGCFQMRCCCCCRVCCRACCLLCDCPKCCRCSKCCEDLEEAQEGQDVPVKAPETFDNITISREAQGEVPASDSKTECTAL

T2: mouse NaPi2b (mouse, UniProt Q9DBP0 1-697)
T2 construct: Transiently expressed on HEK293-6e cells; also called Ms NaPi2b
T2 sequence: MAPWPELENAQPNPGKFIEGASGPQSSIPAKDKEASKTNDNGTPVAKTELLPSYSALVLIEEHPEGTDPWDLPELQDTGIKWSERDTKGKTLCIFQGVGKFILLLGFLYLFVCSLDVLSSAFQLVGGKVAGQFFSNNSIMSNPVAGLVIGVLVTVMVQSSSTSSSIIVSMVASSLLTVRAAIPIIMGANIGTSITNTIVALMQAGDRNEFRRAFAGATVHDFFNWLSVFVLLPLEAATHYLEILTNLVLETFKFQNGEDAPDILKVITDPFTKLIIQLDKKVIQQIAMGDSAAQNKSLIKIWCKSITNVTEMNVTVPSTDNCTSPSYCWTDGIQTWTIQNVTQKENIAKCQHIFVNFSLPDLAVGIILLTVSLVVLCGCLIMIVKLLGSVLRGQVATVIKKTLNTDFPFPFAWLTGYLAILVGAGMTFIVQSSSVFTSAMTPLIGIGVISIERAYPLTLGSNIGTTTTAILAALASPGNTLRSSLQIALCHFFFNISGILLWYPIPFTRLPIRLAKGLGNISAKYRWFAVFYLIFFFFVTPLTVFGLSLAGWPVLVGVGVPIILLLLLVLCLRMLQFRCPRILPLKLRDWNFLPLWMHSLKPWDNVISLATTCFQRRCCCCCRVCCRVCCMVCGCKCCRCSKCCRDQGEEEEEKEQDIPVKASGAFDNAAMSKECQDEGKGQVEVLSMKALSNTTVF

T3: cynomolgus monkey NaPi2b (cynomolgus monkey, UniProt O95436 1-690 (human entry))
T3 construct: Transiently expressed on HEK293-6e cells; also called Cyno NaPi2b
T3 chain: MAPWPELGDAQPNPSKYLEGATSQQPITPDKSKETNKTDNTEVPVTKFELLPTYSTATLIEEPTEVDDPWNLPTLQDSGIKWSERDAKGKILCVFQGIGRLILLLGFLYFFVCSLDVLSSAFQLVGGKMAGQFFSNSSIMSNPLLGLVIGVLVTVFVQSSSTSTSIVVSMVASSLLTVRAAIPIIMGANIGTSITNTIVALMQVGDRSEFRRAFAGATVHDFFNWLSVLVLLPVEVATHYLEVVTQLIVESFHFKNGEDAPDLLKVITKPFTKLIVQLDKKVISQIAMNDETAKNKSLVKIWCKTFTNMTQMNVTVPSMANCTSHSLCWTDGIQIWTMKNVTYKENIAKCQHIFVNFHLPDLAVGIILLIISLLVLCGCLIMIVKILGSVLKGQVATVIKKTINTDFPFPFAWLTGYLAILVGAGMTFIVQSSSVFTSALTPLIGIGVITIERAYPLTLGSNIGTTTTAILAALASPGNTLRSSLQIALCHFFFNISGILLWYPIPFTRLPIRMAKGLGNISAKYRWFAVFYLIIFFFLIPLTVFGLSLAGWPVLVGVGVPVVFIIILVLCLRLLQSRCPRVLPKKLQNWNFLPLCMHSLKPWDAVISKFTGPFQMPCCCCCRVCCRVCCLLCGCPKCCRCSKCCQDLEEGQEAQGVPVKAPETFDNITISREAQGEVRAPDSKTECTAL


Columns and labels:
[1] = target: T1, human sodium-dependent phosphate …; test: flow cytometry, IGROV-1 cells (endogenous NaPi2b); apparent Kd
Description: (§1) Briefly, cells were seeded at 50,000 cells/well in conical-bottom 96-well plates and treated with test antibody for 24 hours at 4° C. to prevent internalization. […] Following incubation, cells were washed and stained with anti-Human IgG Fc AF647 conjugate (Jackson Immuno Research Labs, West Grove, PA; Cat. No. 109-605-098) at 4° C. for 30 min. Following incubation and washing, fluorescence was detected by flow cytometry on a BD LSRFortessa™ Cell Analyzer (BD Biosciences, Franklin Lake, NJ) with 1,000 minimum events collected per well. The AF647/APC-A GeoMean (fluorescence signal geometric mean, proportional to anti-Human AF647 binding) was calculated for the live cell population using FlowJo™ Version 10.8.1 (BD Biosciences, Franklin Lake, NJ) and plotted for each test antibody using GraphPad Prism Version 9 (GraphPad Software, San Diego, CA).
(§2) The ability of the humanized antibody variants v38591 and v29456 to bind to NaPi2b expressed on cells was assessed on endogenous NaPi2b-expressing tumor cell lines IGROV-1 (ovarian adenocarcinoma) and TOV-21G (ovarian carcinoma) by flow cytometry.
(§3) Cellular binding was performed according to methods described in Example 13.

[2] = target: T1, human sodium-dependent phosphate …; test: flow cytometry, TOV-21G cells (endogenous NaPi2b); apparent Kd
Description: as §1, §2, §3

[3] = target: T1, human sodium-dependent phosphate …; test: flow cytometry, HEK293-6e cells transfected with human NaPi2b; apparent Kd
Description: The binding cross-reactivity of humanized antibody variant v38591 to human NaPi2b, NaPi2a, and NaPi2c was assessed by flow cytometry using HEK293-6e transfected cells.
Following transfection, cells were seeded at 50,000 cells/well in conical-bottom 96-well plates and treated with test antibody for 24 hours at 4° C. to prevent internalization. Following incubation, cells were washed and stained with anti-Human IgG Fc AF647 conjugate (Jackson Immuno Research Labs, West Grove, PA; Cat. No. 109-605-098) or anti-Rabbit IgG F(ab″)2 AF647 conjugate (Jackson Immuno Research Labs, West Grove, PA; Cat. No. 111-605-047). Following incubation and washing, fluorescence was detected by flow cytometry on a BD LSRFortessa™ Cell Analyzer (BD Biosciences, Franklin Lake, NJ) with 1,000 minimum events collected per well. The AF647/APC-A GeoMean (fluorescence signal geometric mean, proportional to anti-Human AF647 binding) was calculated for the live cell population using FlowJo™ Version 10.8.1 (BD Biosciences, Franklin Lake, NJ) and plotted for each test antibody using GraphPad Prism Version 9 (GraphPad Software, San Diego, CA).

[4] = target: T1, human sodium-dependent phosphate …; test: flow cytometry on IGROV-1 cells (endogenous NaPi2b), 24 h at 4 C, anti-human IgG Fc AF647 detection
Description: as §1, §2, §3

[5] = target: T1, human sodium-dependent phosphate …; test: flow cytometry on TOV-21G cells (endogenous NaPi2b), 24 h at 4 C, anti-human IgG Fc AF647 detection
Description: as §1, §2, §3

[6] = target: T4, FcgR1A (human, UniProt P12314 16-374); test: Membrane Proteome Array screen, flow cytometry on HEK293T cells each expressing one of over 6000 human membrane proteins
T4 construct: whole, on cells
T4 sequence (P12314 16-374): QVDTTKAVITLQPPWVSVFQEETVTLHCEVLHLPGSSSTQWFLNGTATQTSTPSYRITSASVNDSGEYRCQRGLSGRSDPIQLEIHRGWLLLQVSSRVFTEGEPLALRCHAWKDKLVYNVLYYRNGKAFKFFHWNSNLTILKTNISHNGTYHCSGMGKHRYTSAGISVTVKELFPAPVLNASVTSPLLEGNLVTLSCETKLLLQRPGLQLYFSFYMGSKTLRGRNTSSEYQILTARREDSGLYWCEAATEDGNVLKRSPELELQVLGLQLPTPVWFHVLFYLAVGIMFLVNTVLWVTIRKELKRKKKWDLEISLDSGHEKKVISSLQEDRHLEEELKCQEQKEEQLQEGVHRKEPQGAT
Description: Briefly, the study consisted of three phases: phase (1) determination of assay screening conditions, phase (2) membrane proteome array (library) screen and phase (3) protein target validation. […] In phase (3), each protein target hit from the screen stage (potential off-target interactions) was assessed in titration experiment using flow cytometry.

[7] = target: T2, mouse NaPi2b; test: flow cytometry on HEK293-6e cells transiently expressing mouse NaPi2b, 4 C, anti-human IgG Fc AF647 detection
[8] = target: T3, cynomolgus monkey NaPi2b; test: flow cytometry on HEK293-6e cells transiently expressing cynomolgus NaPi2b, 4 C, anti-human IgG Fc AF647 detection

Binder | Kd [1] | Kd [2] | Kd [3] | EC50 (read off the curve) [4] | EC50 (read off the curve) [5] | binding result [6] | binding result [7] | binding result [8]
v38591 humanized anti-NaPi2b antibody (antibody, human IgG1, kappa, also called humanized v38591 anti-NaPi2b (SLC34A2) variant) heavy: not shown light: DVQMTQSPSSLSASVGDRVTITCRASQDVYSYLNWYQQKPGKAVKLLIYYTSRLQSGVPSRFSGSGSGTDYTLTISSLQPEDFATYYCQQYNIFPWTFGQGTKLEIKRTVAAPSVFIFPPSDEQLKSGTASVVCLLNNFYPREAKVQWKVDNALQSGNSQESVTEQDSKDSTYSLSSTLTLSKADYEKHKVYACEVTHQGLSSPVTKSFNRGEC | 1.39 nM | 0.74 nM | 1.68 nM | ~1 nM | ~0.7 nM | binds | – | –
v22277, palivizumab (anti-RSV) negative control (antibody, human IgG1, kappa, Heterodimeric Fc form of palivizumab (clones CL_#11009, CL_#11010, CL_#16635); also called neg control) heavy 1: GQVTLRESGPALVKPTQTLTLTCTFSGFSLSTSGMSVGWIRQPPGKALEWLADIWWDDKKDYNPSLKSRLTISKDTSKNQVVLKVTNMDPADTATYYCARSMITNWYFDVWGAGTTVTVSSASTKGPSVFPLAPSSKSTSGGTAALGCLVKDYFPEPVTVSWNSGALTSGVHTFPAVLQSSGLYSLSSVVTVPSSSLGTQTYICNVNHKPSNTKVDKKVEPKSCDKTHTCPPCPAPELLGGPSVFLFPPKPKDTLMISRTPEVTCVVVDVSHEDPEVKFNWYVDGVEVHNAKTKPREEQYNSTYRVVSVLTVLHQDWLNGKEYKCKVSNKALPAPIEKTISKAKGQPREPQVYVYPPSRDELTKNQVSLTCLVKGFYPSDIAVEWESNGQPENNYKTTPPVLDSDGSFALVSKLTVDKSRWQQGNVFSCSVMHEALHNHYTQKSLSLSPG heavy 2: not shown light: GDIQMTQSPSTLSASVGDRVTITCKSQLSVGYMHWYQQKPGKAPKLLIYDTSKLASGVPSRFSGSGSGTEFTLTISSLQPDDFATYYCFQGSGYPFTFGGGTKLEIKRTVAAPSVFIFPPSDEQLKSGTASVVCLLNNFYPREAKVQWKVDNALQSGNSQESVTEQDSKDSTYSLSSTLTLSKADYEKHKVYACEVTHQGLSSPVTKSFNRGEC | – | – | – | – | – | – | no binding (tested: about 200 nM) | no binding (tested: about 200 nM)
